Test results: patent US20200325214A1

Assays:
[1] = molecular target: human serum albumin (human) (UniProt P02768); experiment: SPR, scDb, pH 5.5
[2] = molecular target: cynomolgus serum albumin (cynomolgus) (UniProt A2V9Z4); experiment: SPR, scDb, pH 5.5
[3] = molecular target: human serum albumin (human) (UniProt P02768); experiment: SPR, scDb, pH 7.4
[4] = molecular target: cynomolgus serum albumin (cynomolgus) (UniProt A2V9Z4); experiment: SPR, scDb, pH 7.4

B1: PRO480 (bispecific antibody, part only; not given: second specificity domains and linkers, V domains shown, not shown: another chain or arm of the molecule)
VL: DVVMTQSPSSLSASVGDRVTITCQASQIISSRSAWYQQKPGQPPKLLIYQASKLASGVPSRFSGSGSGTDFTLTISSLQPEDFATYYCQCTYIDSNFGAFGGGTKLTVLG
VH: EVQLVESGGGLVQPGGSLRLSCAASGFSFSSSYWICWVRQAPGKGLEWVGCVFTGDGTTYYASWAKGRFTISRDNSKNTVYLQMNSLRAEDTATYFCARPVSVYYYGMDLWGQGTLVTVSS
B1 gave a Kd [1] of 2.3 nM, a koff [1] of 0.000173 s⁻¹ and a kon [1] of 75000 M⁻¹ s⁻¹. For the same binder, the Kd [2] was 4.82 nM, the koff [2] was 0.000373 s⁻¹ and the kon [2] was 77600 M⁻¹ s⁻¹. The Kd [3] was 3.36 nM, the koff [3] was 0.000235 s⁻¹ and the kon [3] was 70100 M⁻¹ s⁻¹. It also gave a koff [4] of 0.000549 s⁻¹ and a kon [4] of 57000 M⁻¹ s⁻¹.

B2: PRO462 (bispecific antibody, part only; not given: second specificity domains and linkers, V domains shown, not shown: another chain or arm of the molecule)
VL: DIQMTQSPSSLSASVGDRVTITCQSSESVYSNNQLSWYQQKPGQPPKLLIYDASDLASGVPSRFSGSGSGTDFTLTISSLQPEDFATYYCAGGFSSSSDTAFGGGTKLTVLG
VH: EVQLVESGGGLVQPGGSLRLSCAASGFSLSSNAMGWVRQAPGKGLEYIGIISVGGFTYYASWAKGRFTISRDNSKNTVYLQMNSLRAEDTATYFCARDRHGGDSSGAFYLWGQGTLVTVSS
Binder B2 has a Kd [1] of 0.371 nM, a koff [1] of 0.000333 s⁻¹ and a kon [1] of 897000 M⁻¹ s⁻¹. It also gave a Kd [2] of 0.175 nM, a koff [2] of 0.000175 s⁻¹ and a kon [2] of 1e+06 M⁻¹ s⁻¹. For the same binder, the Kd [3] was 0.728 nM, the koff [3] was 0.000345 s⁻¹ and the kon [3] was 474000 M⁻¹ s⁻¹. It also gave a koff [4] of 0.000221 s⁻¹ and a kon [4] of 630000 M⁻¹ s⁻¹.
